Results taken from paper PMC8595303, “Dramatic activation of an antibody by a single amino acid change in framework” (Scientific Reports, 2021).

T1: mature form of human TGFβ2 (made from LAP-TGFβ2 in CHO, for crystallization) (Homo sapiens)
T1 construct: Transforming Growth Factor-beta 2, human, mature form separated from LAP-TGFβ2; also called TGFb2; TGFβ2 dimer
T1 chain: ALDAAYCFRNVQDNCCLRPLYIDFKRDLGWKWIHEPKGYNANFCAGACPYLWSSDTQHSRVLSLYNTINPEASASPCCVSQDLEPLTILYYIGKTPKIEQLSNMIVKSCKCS


What was measured:
human mature TGFβ1 [1] = target: T2, human mature TGFβ1 (Homo sapiens, UniProt P01137); test: cell-based or functional assay
[2] = target: T3, human mature TGFβ2 (PeproTech) (Homo sapiens, UniProt P61812); test: cell-based or functional assay
human mature TGFβ3 [3] = target: T4, human mature TGFβ3 (Homo sapiens, UniProt P10600); test: cell-based or functional assay
human mature TGFβ1 [4] = target: T2, human mature TGFβ1; test: SPR; Biacore T200; antibody captured on a Protein A sensor chip (about 90 RU); mature TGFβ isoform injected, five-fold dilutions 0.008 nM to 5 nM; HBS-EP pH 7.4, 150 mM NaCl; 37 °C; 100 μl/min; 3 min association, 60 min dissociation; one-to-one Langmuir model, global fit; details: both partners purified
[5] = target: T3, human mature TGFβ2 (PeproTech); test: as above; details: both partners purified
human mature TGFβ3 [6] = target: T4, human mature TGFβ3; test: as above; details: both partners purified
[7] = target: T1, mature form of human TGFβ2 (made from …); test: crystal structure; TGFβ2 and h4A11.v2 Fab mixed at 1:1 molar ratio, complex purified on Superdex-200 (25 mM Tris-HCl pH 7.5, 200 mM NaCl); crystals by vapor diffusion at 19 °C, 15% PEG 4000, 0.1 M Na Cacodylate pH 6.0; 2.9 Å; details: both partners purified

T2 sequence (P01137 279-390): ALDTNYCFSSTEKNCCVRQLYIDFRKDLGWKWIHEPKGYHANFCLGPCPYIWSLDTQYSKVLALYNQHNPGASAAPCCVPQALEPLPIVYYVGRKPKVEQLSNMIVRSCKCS
T4 sequence (P10600 301-412): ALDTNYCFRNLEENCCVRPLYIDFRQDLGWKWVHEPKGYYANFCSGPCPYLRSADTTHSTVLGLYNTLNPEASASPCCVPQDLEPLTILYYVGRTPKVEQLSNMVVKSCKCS

TGFβ inhibition by HEK-Blue cells (IC50: nM), TGFb1 (human mature TGFβ1 [1]) [nM]	TGFβ inhibition by HEK-Blue cells (IC50: nM), TGFb2; Blocking: Incomplete [2] [nM]	TGFβ inhibition by HEK-Blue cells (IC50: nM), TGFb3; Blocking: Incomplete (human mature TGFβ3 [3]) [nM]	Kd (human mature TGFβ1 [4]) [nM]	binding result (human mature TGFβ1 [4])	Kd [5] [nM]	Kd (human mature TGFβ3 [6]) [nM]	binding result [7]	TGFβ inhibition by HEK-Blue cells (IC50: nM), TGFb2; Blocking: Complete [2] [nM]	TGFβ inhibition by HEK-Blue cells (IC50: nM), TGFb3; Blocking: Complete (human mature TGFβ3 [3]) [nM]	Binder
> 667	> 667	> 667	> 5	no binding (tested: 5 nM)	0.0084	0.0125				humanized 4A11 variant 6 (antibody, V domains shown, as the VH of m7 (h4A11.v2): rbt4A11 CDRs and rabbit Vernier residues grafted on human germline IGHV3-48*01; rbt4A11 CDRs and rabbit Vernier residues (VL positions 2, 4, 36, 43, 58) grafted on human germline IGKV2-24*01; human IgG1; also called h4A11.v6; v6; source: Expi293F, transient, purified (Protein A, SEC)) VH: EQQLVESGGGLVQPGGSLRLSCAVSGFSLSSYTVNWVRQAPGKGLEWIGYISYGGSAYYASWANGRFTISKDSAKNSVYLQMNSLRAEDTAVYFCARHMQVGGAPTGSMAAFDPWGPGTLVTVSS VL: DAVLTQTPLSSPVTLGQPASISCQSSQSVYNNNYLSWFQQRPGQPPRLLIYGASTLTSGVPDRFSGSGAGTDFTLKISRVEAEDVGVYYCAGGYSGSSDKYAFGGGTKVEIK
> 667			> 5	no binding (tested: 5 nM)	0.0082	0.0141		4.8	0.7	humanized 4A11 variant 8 (antibody, V domains shown, as the VH of m12 (h4A11.v7): rbt4A11 CDRs and rabbit Vernier residues grafted on human germline IGHV4-59*06; as the VL of m11 (h4A11.v6): rbt4A11 CDRs and rabbit Vernier residues grafted on human germline IGKV2-24*01; human IgG1; also called h4A11.v8; v8; source: Expi293F, transient, purified (Protein A, SEC)) VH: EQQLQESGPGLVKPSETLSLTCTVTGFSLSSYTVNWVRQPAGKGLEWIGYISYGGSAYYASWANGRFTISKDSSKNQVSLKLSSVTAADTAVYFCARHMQVGGAPTGSMAAFDPWGPGTLVTVSS VL: DAVLTQTPLSSPVTLGQPASISCQSSQSVYNNNYLSWFQQRPGQPPRLLIYGASTLTSGVPDRFSGSGAGTDFTLKISRVEAEDVGVYYCAGGYSGSSDKYAFGGGTKVEIK
> 667			> 5	no binding (tested: 5 nM)	0.0063	0.0097		0.9	0.2	humanized 4A11 variant 7 (antibody, V domains shown, rbt4A11 CDRs (Kabat and Chothia) and rabbit Vernier residues (VH positions 2, 24, 37, 48, 49, 67, 71, 78, 91, 105) grafted on human germline IGHV4-59*06; has S19, S79, K81 (Kabat numbering); rbt4A11 CDRs and rabbit Vernier residues (VL positions 2, 4, 36, 43, 58) grafted on human germline IGKV3-20*01; human IgG1; also called h4A11.v7; v7; source: Expi293F, transient, purified (Protein A, SEC)) VH: EQQLQESGPGLVKPSETLSLTCTVTGFSLSSYTVNWVRQPAGKGLEWIGYISYGGSAYYASWANGRFTISKDSSKNQVSLKLSSVTAADTAVYFCARHMQVGGAPTGSMAAFDPWGPGTLVTVSS VL: EAVLTQSPGTLSLSPGERATLSCQSSQSVYNNNYLSWFQQKPGQPPRLLIYGASTLTSGVPDRFSGSGSGTDFTLTISRLEPEDFAVYYCAGGYSGSSDKYAFGGGTKVEIK
> 667			> 5	no binding (tested: 5 nM)	0.0016	0.0012		0.9	0.1	rabbit monoclonal antibody 4A11 (antibody, V domains shown, VH of rbt4A11; VL of rbt4A11; Parental rabbit antibody; also called rbt4A11) VH: QSLEESGGRLVTPGTPLTLTCTVSGFSLSSYTVNWVRQAPGKGLEWIGYISYGGSAYYASWANGRFTISKTSATVDLKITSPTTEDTATYFCARHMQVGGAPTGSMAAFDPWGPGTLVTVSS VL: AAVLTQTPSPVSAAVGGTVSISCQSSQSVYNNNYLSWFQQKPGQPPKLLIYGASTLTSGVPSRFKGSGSGTQFTLTISDVQCDDAATYYCAGGYSGSSDKYAFGGGTEVVVK

The remaining lines, values behind:

Binder	TGFβ inhibition by HEK-Blue cells (IC50: nM), TGFb1 (human mature TGFβ1 [1]) [nM]	TGFβ inhibition by HEK-Blue cells (IC50: nM), TGFb2; Blocking: Incomplete [2] [nM]	TGFβ inhibition by HEK-Blue cells (IC50: nM), TGFb3; Blocking: Incomplete (human mature TGFβ3 [3]) [nM]	Kd (human mature TGFβ1 [4]) [nM]	binding result (human mature TGFβ1 [4])	Kd [5] [nM]	Kd (human mature TGFβ3 [6]) [nM]	binding result [7]	TGFβ inhibition by HEK-Blue cells (IC50: nM), TGFb2; Blocking: Complete [2] [nM]	TGFβ inhibition by HEK-Blue cells (IC50: nM), TGFb3; Blocking: Complete (human mature TGFβ3 [3]) [nM]
humanized 4A11 variant 5 (antibody, V domains shown, as the VH of m7 (h4A11.v2): rbt4A11 CDRs and rabbit Vernier residues grafted on human germline IGHV3-48*01; as the VL of m12 (h4A11.v7): rbt4A11 CDRs and rabbit Vernier residues grafted on human germline IGKV3-20*01; human IgG1; also called h4A11.v5; v5; source: Expi293F, transient, purified (Protein A, SEC)) VH: EQQLVESGGGLVQPGGSLRLSCAVSGFSLSSYTVNWVRQAPGKGLEWIGYISYGGSAYYASWANGRFTISKDSAKNSVYLQMNSLRAEDTAVYFCARHMQVGGAPTGSMAAFDPWGPGTLVTVSS VL: EAVLTQSPGTLSLSPGERATLSCQSSQSVYNNNYLSWFQQKPGQPPRLLIYGASTLTSGVPDRFSGSGSGTDFTLTISRLEPEDFAVYYCAGGYSGSSDKYAFGGGTKVEIK	> 667	> 667	> 667	> 5	no binding (tested: 5 nM)	0.0121	0.0139			
humanized 4A11 variant 2 (antibody, V domains shown, rbt4A11 CDRs (Kabat and Chothia) and rabbit Vernier residues (VH positions 2, 24, 37, 48, 49, 67, 71, 78, 91, 105) grafted on human germline IGHV3-48*01; has R19, Y79, Q81 (Kabat numbering); rbt4A11 CDRs and rabbit Vernier residues (VL positions 2, 4, 36, 43, 58) grafted on human germline IGKV1D-39*01; human IgG1; also called h4A11.v2; v2; source: Expi293F, transient, purified (Protein A, SEC)) VH: EQQLVESGGGLVQPGGSLRLSCAVSGFSLSSYTVNWVRQAPGKGLEWIGYISYGGSAYYASWANGRFTISKDSAKNSVYLQMNSLRAEDTAVYFCARHMQVGGAPTGSMAAFDPWGPGTLVTVSS VL: DAQLTQSPSSLSASVGDRVTITCQSSQSVYNNNYLSWFQQKPGKPPKLLIYGASTLTSGVPSRFSGSGSGTDFTLTISSLQPEDFATYYCAGGYSGSSDKYAFGGGTKVEIK	> 667	> 667	> 667	> 5	no binding (tested: 5 nM)	0.0014	0.0133			
Fab fragment of h4A11.v2 (Fab, V domains shown, Fab heavy chain of h4A11.v2; its VH as the VH of m7; Fab light chain of h4A11.v2; its VL as the VL of m7; also called h4A11.v2-Fab; h4A11.v2 Fab; source: E. coli, purified (Protein G, SP-sepharose)) VH: EQQLVESGGGLVQPGGSLRLSCAVSGFSLSSYTVNWVRQAPGKGLEWIGYISYGGSAYYASWANGRFTISKDSAKNSVYLQMNSLRAEDTAVYFCARHMQVGGAPTGSMAAFDPWGPGTLVTVSS VL: DAQLTQSPSSLSASVGDRVTITCQSSQSVYNNNYLSWFQQKPGKPPKLLIYGASTLTSGVPSRFSGSGSGTDFTLTISSLQPEDFATYYCAGGYSGSSDKYAFGGGTKVEIK								binds		
humanized 4A11 variant 3 (antibody, V domains shown, as the VH of m12 (h4A11.v7): rbt4A11 CDRs and rabbit Vernier residues grafted on human germline IGHV4-59*06; as the VL of m6 (h4A11.v1): rbt4A11 CDRs and rabbit Vernier residues grafted on human germline IGKV4-1*01; human IgG1; also called h4A11.v3; v3; source: Expi293F, transient, purified (Protein A, SEC)) VH: EQQLQESGPGLVKPSETLSLTCTVTGFSLSSYTVNWVRQPAGKGLEWIGYISYGGSAYYASWANGRFTISKDSSKNQVSLKLSSVTAADTAVYFCARHMQVGGAPTGSMAAFDPWGPGTLVTVSS VL: DAVLTQSPDSLAVSLGERATINCQSSQSVYNNNYLSWFQQKPGQPPKLLIYGASTLTSGVPDRFSGSGSGTDFTLTISSLQAEDVAVYYCAGGYSGSSDKYAFGGGTKVEIK	> 667			> 5	no binding (tested: 5 nM)	0.0096	0.0121		3.9	0.2
humanized 4A11 variant 4 (antibody, V domains shown, as the VH of m12 (h4A11.v7): rbt4A11 CDRs and rabbit Vernier residues grafted on human germline IGHV4-59*06; as the VL of m7 (h4A11.v2): rbt4A11 CDRs and rabbit Vernier residues grafted on human germline IGKV1D-39*01; human IgG1; also called h4A11.v4; v4; source: Expi293F, transient, purified (Protein A, SEC)) VH: EQQLQESGPGLVKPSETLSLTCTVTGFSLSSYTVNWVRQPAGKGLEWIGYISYGGSAYYASWANGRFTISKDSSKNQVSLKLSSVTAADTAVYFCARHMQVGGAPTGSMAAFDPWGPGTLVTVSS VL: DAQLTQSPSSLSASVGDRVTITCQSSQSVYNNNYLSWFQQKPGKPPKLLIYGASTLTSGVPSRFSGSGSGTDFTLTISSLQPEDFATYYCAGGYSGSSDKYAFGGGTKVEIK	> 667			> 5	no binding (tested: 5 nM)	0.01	0.0101		1.9	0.1
humanized 4A11 variant 1 (antibody, V domains shown, as the VH of m7 (h4A11.v2): rbt4A11 CDRs and rabbit Vernier residues grafted on human germline IGHV3-48*01; rbt4A11 CDRs and rabbit Vernier residues (VL positions 2, 4, 36, 43, 58) grafted on human germline IGKV4-1*01; human IgG1; also called h4A11.v1; v1; source: Expi293F, transient, purified (Protein A, SEC)) VH: EQQLVESGGGLVQPGGSLRLSCAVSGFSLSSYTVNWVRQAPGKGLEWIGYISYGGSAYYASWANGRFTISKDSAKNSVYLQMNSLRAEDTAVYFCARHMQVGGAPTGSMAAFDPWGPGTLVTVSS VL: DAVLTQSPDSLAVSLGERATINCQSSQSVYNNNYLSWFQQKPGQPPKLLIYGASTLTSGVPDRFSGSGSGTDFTLTISSLQAEDVAVYYCAGGYSGSSDKYAFGGGTKVEIK	> 667	> 667	> 667	> 5	no binding (tested: 5 nM)	0.0046	0.0144			
